Assay results as given in the Human Domainome abundance scans (Beltran et al. 2025).

B1: Intersectin-1, residues 1156 to 1213; numbered along this chain, Q15811 (parent)
chain: AVCQVIGMYDYTAQNDDELAFNKGQIINVLNKEDPDWWKGEVNGQVGLFPSNYVKLTT
B2: POU domain, class 5, transcription factor 1, residues 134 to 212; numbered along this chain, Q01860 (parent)
chain: EESQDIKALQKELEQFAKLLKQKRITLGYTQADVGLTLGVLFGKVFSQTTICRFEALQLSFKNMCKLRPLLQKWVEEAD

Variants of: B1
Assay: abundance fitness (aPCA) (normalised: wild type 0, dead -1); higher = more abundant; growth selection in yeast, the domain comes from the species named
Conditions: Homo sapiens

Abundance fitness, by site and new letter:
F49: E -0.816 | T -0.861 | Q -0.661 | A -0.743 | D -0.485 | S -0.817 | I -0.184 | V -0.391 | K -0.84 | L -0.527 | C -0.871 | R -0.862 | P -0.814 | G -0.829 | W -0.76 | M -0.725 | N -0.431 | Y -0.782

Variants of: B2
Assay: as above
Conditions: Homo sapiens

Abundance fitness of substitutions, site by site:
E2: G 0.211
A8: L -0.318 | Q 0.182 | V 0.083 | S 0.171 | T 0.429 | G -0.148 | P 0.697 | E -0.08 | C 0.222
Q4: T 0.005 | D 0.046 | A -0.097 | N -0.253 | G -0.064 | L -0.067 | K -0.011 | Y 0.291 | M -0.118 | V -0.061 | P -0.135 | F -0.059 | H -0.051 | C -0.211 | S -0.258 | E -0.13 | I -0.309
D5: C 0.057 | T -0.141 | P 0.062 | N 0.092 | S -0.191 | G -0.331 | A -0.126 | V -0.018 | E -0.343
K7: V -0.085 | D 0.061 | A -0.007 | I -0.391 | H -0.193 | P -0.124 | L -0.073 | G -0.193 | F -0.257 | M -0.319 | N -0.022 | W -0.173 | S -0.05 | Y -0.12 | C -0.132 | T -0.162 | Q -0.142 | E -0.025
S3: F -0.082 | G 0.131 | V 0.323 | L 0.163
Q10: Y 0.042 | A -0.169 | C -0.477 | S -0.111 | F 0.117 | T -0.184 | W 0.305 | L -0.214 | H -0.31 | R 0.137 | G -0.239 | P -0.214 | I -0.373 | E -0.354 | D -0.128 | M -0.063 | N -0.086
I6: N -0.082 | G -0.122 | D 0.122 | K 0.359 | T 0.195 | Q 0.063 | W -0.351 | L -0.143 | A 0.005 | F 0.052 | P -0.015 | S -0.054 | E -0.452 | C -0.417 | M 0.1 | V -0.749
L9: S 0.136 | P 0.195 | Y -0.164 | K 0.28 | C -0.123 | V 0.044 | G -0.127 | W -0.254 | N -0.086 | R -0.023 | A -0.066 | E 0.017 | I -0.331 | D -0.385 | H -0.215 | Q 0.106 | T -0.171 | F -0.316
E1: K -0.034 | Q 0.066 | S -0.58 | V -0.45 | M 0.273 | G 0.053 | R 0.064 | W -0.244 | L -0.135
E12: S -0.094 | K 0.254 | M -0.38 | A -0.345 | L -0.312 | F 0.341 | H -0.051 | P -0.473 | V -0.065 | G -0.35 | Q -0.185 | I -0.112 | D -0.357 | T -0.405 | R -0.07
K11: D 0.168 | S 0.019 | N 0.048 | L -0.153 | T -0.388 | E -0.031 | M 0.076 | C -0.369 | I 0.062 | P 0.23 | V -0.21 | Q 0.057 | G -0.168 | Y 0.067 | W -0.198 | A -0.201
